Earlier results on two substances are cited in PMC4131687.

For series [1], the target named is NaV1.4 (Rattus norvegicus) (UniProt P15390).
For series [2], the target named is NaV1.2 (Rattus norvegicus) (UniProt P04775).
NaV1.2 (Rattus norvegicus), sequence (P04775 whole entry): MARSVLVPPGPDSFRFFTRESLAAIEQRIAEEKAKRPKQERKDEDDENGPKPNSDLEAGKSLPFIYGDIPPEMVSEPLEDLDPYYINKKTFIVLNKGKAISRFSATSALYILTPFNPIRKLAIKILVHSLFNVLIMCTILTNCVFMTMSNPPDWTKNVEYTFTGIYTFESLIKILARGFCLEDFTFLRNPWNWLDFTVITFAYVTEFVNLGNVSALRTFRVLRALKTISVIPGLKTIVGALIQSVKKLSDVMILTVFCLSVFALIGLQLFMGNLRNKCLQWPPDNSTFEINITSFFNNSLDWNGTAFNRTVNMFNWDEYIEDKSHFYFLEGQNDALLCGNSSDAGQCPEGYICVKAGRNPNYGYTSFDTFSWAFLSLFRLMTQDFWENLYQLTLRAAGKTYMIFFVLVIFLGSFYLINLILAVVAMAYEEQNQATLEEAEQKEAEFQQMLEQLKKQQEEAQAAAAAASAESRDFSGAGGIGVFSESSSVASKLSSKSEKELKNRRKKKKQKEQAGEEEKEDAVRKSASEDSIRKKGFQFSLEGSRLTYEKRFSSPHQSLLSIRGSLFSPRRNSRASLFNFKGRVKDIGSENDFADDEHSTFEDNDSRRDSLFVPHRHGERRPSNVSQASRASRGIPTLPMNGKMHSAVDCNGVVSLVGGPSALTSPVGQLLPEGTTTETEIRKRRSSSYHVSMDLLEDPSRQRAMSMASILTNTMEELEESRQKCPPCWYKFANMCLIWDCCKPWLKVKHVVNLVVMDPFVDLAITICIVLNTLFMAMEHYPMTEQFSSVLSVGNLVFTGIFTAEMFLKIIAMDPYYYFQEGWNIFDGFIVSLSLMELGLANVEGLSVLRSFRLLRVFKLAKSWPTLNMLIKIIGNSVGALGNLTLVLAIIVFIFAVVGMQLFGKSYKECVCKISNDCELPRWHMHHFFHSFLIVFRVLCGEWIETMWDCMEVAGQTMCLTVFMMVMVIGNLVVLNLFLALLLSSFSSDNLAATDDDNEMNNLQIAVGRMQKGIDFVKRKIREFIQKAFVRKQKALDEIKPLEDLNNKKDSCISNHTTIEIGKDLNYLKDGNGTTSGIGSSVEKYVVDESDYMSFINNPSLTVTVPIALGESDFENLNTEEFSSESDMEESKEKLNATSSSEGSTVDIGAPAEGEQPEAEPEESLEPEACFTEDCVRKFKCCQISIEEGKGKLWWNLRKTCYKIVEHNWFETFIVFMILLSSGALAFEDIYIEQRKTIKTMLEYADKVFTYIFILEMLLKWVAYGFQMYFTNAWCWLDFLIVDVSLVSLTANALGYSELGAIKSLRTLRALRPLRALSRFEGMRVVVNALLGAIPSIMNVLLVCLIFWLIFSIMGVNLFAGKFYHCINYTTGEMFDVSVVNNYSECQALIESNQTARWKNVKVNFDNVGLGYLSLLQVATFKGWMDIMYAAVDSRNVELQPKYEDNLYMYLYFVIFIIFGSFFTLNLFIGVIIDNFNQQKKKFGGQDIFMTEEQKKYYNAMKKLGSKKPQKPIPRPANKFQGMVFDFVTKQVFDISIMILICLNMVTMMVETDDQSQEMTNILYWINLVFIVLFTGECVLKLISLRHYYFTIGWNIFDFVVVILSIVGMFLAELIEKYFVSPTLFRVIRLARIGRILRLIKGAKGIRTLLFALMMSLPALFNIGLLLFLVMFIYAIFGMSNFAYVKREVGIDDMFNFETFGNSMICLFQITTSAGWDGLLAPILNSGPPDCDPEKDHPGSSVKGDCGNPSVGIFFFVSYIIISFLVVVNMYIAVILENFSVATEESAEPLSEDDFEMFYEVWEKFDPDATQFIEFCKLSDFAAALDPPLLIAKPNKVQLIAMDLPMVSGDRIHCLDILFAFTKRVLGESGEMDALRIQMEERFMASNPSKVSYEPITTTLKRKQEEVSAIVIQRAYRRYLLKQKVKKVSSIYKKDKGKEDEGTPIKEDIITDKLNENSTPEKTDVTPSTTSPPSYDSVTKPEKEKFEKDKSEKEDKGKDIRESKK

NaV1.4 (Rattus norvegicus), sequence (P15390 whole entry): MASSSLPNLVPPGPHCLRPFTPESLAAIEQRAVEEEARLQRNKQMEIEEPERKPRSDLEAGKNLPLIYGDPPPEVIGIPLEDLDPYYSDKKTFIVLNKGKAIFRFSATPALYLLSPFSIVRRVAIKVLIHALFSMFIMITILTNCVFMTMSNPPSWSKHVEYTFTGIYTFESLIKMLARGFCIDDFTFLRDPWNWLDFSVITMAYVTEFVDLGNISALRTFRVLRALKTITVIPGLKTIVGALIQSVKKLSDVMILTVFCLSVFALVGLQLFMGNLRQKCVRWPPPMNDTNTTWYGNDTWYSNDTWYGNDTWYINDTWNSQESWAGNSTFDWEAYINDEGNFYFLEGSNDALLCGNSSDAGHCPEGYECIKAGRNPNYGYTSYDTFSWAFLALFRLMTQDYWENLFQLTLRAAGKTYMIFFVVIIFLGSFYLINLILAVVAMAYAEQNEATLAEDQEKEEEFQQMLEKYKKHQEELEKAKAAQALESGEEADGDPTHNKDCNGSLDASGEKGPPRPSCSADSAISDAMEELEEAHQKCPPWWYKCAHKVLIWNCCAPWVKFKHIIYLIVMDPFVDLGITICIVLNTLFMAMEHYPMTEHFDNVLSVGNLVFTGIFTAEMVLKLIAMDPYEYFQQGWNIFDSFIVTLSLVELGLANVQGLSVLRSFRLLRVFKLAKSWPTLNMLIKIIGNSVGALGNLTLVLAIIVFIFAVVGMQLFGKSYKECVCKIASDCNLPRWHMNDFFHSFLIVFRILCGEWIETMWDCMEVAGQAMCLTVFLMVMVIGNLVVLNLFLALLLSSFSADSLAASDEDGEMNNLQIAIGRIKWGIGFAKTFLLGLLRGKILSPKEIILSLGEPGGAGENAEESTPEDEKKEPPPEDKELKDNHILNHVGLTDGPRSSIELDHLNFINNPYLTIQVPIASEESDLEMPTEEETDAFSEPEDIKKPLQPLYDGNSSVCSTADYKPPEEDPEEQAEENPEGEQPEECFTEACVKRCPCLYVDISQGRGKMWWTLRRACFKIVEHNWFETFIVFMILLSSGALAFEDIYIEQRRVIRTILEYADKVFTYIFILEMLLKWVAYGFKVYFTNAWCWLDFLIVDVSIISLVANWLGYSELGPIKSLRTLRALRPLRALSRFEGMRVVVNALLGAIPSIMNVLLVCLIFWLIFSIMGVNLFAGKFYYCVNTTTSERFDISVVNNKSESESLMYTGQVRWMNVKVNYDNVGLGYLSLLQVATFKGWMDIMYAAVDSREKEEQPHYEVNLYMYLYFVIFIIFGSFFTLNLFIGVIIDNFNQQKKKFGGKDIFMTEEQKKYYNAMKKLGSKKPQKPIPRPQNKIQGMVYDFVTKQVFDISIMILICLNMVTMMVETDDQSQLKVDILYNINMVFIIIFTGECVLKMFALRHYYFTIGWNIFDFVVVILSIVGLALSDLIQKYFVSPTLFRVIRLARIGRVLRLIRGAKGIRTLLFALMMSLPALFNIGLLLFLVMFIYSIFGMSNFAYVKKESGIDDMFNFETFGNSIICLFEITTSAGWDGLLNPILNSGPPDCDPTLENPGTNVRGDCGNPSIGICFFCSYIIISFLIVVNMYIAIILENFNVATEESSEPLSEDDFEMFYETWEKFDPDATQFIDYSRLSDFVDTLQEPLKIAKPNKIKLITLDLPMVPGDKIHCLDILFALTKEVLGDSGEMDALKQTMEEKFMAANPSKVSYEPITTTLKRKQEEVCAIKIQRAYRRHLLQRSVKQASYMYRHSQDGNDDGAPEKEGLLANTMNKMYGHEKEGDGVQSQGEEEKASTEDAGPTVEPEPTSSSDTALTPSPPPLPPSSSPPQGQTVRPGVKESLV

“mu-conotoxin KIIIA (from UniProt P0C195)”: the Kd in series [1] is 50 nM.

On to “μ-conotoxin KIIIA-P1 (from UniProt P0C195)”, for which, in series [2], the Kd was 5 nM.
